Some targets named below: EGR1 DB_H382R (human, UniProt P18146 331-430, H382R); EGR1 DB_H382E (human, UniProt P18146 331-430, H382E); EGR1 DB_H382K (human, UniProt P18146 331-430, H382K); EGR1 DB_H382A (human, UniProt P18146 331-430, H382A).
Assay in all cases: ITC
The target of series [1] is T1, EGR1 DB_WT (Zif268 DNA-binding domain) (human, UniProt P18146 331-430).
Series [2] has as its target T1, EGR1 DB_WT (Zif268 DNA-binding domain). The source holds these as a separate data set.
For series [3] the target is unchanged. The source holds these as a separate data set.
Series [4] shares this target. This is another data set of the same source.
The target is the same in series [5]. The source holds these as a separate data set.
For series [6] the target is unchanged. This is another data set of the same source.
For series [7] the target is unchanged. The source holds these as a separate data set.
Series [8] has the same target. This is another data set of the same source.
For series [9] the target is unchanged. This is another data set of the same source.
For series [10] the target is unchanged. The source holds these as a separate data set.

This passage reports Kd results from article PMC3896865.

Like-named read-outs stand apart in the source and are kept apart here.

B1: ZRE duplex (15-mer) (dsDNA)
DNA 1: ATAGCGTGGGCGTTT
DNA 2: AAACGCCCACGCTAT
As for B1, the Kd in series [1] came out at 0.314 µM; in [2] it was 0.421 µM; in series [3] it was 0.266 µM; in series [4], 0.324 µM; in series [5] it was 0.271 µM; in the series with EGR1 DB_H382R, 2.04 µM. For the same molecule, the Kd came to 2.3 µM with EGR1 DB_H382E; 2.26 µM with EGR1 DB_H382K; 1.61 µM with EGR1 DB_H382A; 0.345 µM in series [6]; 1.33 µM in [7]; 0.755 µM in series [8]. Further, the Kd worked out at 0.758 µM in series [9] and 1.03 µM in series [10].
